Measurements reported in publication PMC2367731 (Nucleic Acids Research, 2008).

Key:
[1] = target: T1, H3.1/H4 complex (His6 tags removed) (human, UniProt P68431;P62805); assay: native gel or EMSA
[2] = target: T2, H3t/H4 complex (His6 tags removed) (human, UniProt Q16695;P62805); assay: native gel or EMSA
[3] = target: His6-tagged H3t/H4 complex (human, UniProt Q16695;P62805); assay: pull-down
[4] = target: His6-tagged H3.1/H4 complex (human, UniProt P68431;P62805); assay: pull-down
[5] = target: T1, H3.1/H4 complex (His6 tags removed); assay: pull-down
[6] = target: T2, H3t/H4 complex (His6 tags removed); assay: pull-down

| Binder | binding result [1] | binding result [2] | binding result [3] | binding result [4] | binding result [5] | binding result [6] |
| --- | --- | --- | --- | --- | --- | --- |
| human Nap1 (nucleosome assembly protein 1), His6 tag removed (natural protein) MADIDNKEQSELDQDLDDVEEVEEEETGEETKLKARQLTVQMMQNPQILAALQERLDGLVETPTGYIESLPRVVKRRVNALKNLQVKCAQIEAKFYEEVHDLERKYAVLYQPLFDKRFEIINAIYEPTEEECEWKPDEEDEISEELKEKAKIEDEKKDEEKEDPKGIPEFWLTVFKNVDLLSDMVQEHDEPILKHLKDIKVKFSDAGQPMSFVLEFHFEPNEYFTNEVLTKTYRMRSEPDDSDPFSFDGPEIMGCTGCQIDWKKGKNVTLKTIKKKQKHKGRGTVRTVTKTVSNDSFFNFFAPPEVPESGDLDDDAEAILAADFEIGHFLRERIIPRSVLYFTGEAIEDDDDDYDEEGEEADEEGEEEGDEENDPDYDPKKDQNPAECKQQ | binds | binds | binds | binds |  |  |
| human Nap2, His6 tag removed (natural protein) MADHSFSDGVPSDSVEAAKNASNTEKLTDQVMQNPRVLAALQERLDNVPHTPSSYIETLPKAVKRRINALKQLQVRCAHIEAKFYEEVHDLERKYAALYQPLFDKRREFITGDVEPTDAESEWHSENEEEEKLAGDMKSKVVVTEKAAATAEEPDPKGIPEFWFTIFRNVDMLSELVQEYDEPILKHLQDIKVKFSDPGQPMSFVLEFHFEPNDYFTNSVLTKTYKMKSEPDKADPFSFEGPEIVDCDGCTIDWKKGKNVTVKTIKKKQKHKGRGTVRTITKQVPNESFFNFFNPLKASGDGESLDEDSEFTLASDFEIGHFFRERIVPRAVLYFTGEAIEDDDNFEEGEEGEEEELEGDEEGEDEDDAEINPKV |  |  | binds | binds |  |  |
| His6-tagged human Nap1 (natural protein) MADIDNKEQSELDQDLDDVEEVEEEETGEETKLKARQLTVQMMQNPQILAALQERLDGLVETPTGYIESLPRVVKRRVNALKNLQVKCAQIEAKFYEEVHDLERKYAVLYQPLFDKRFEIINAIYEPTEEECEWKPDEEDEISEELKEKAKIEDEKKDEEKEDPKGIPEFWLTVFKNVDLLSDMVQEHDEPILKHLKDIKVKFSDAGQPMSFVLEFHFEPNEYFTNEVLTKTYRMRSEPDDSDPFSFDGPEIMGCTGCQIDWKKGKNVTLKTIKKKQKHKGRGTVRTVTKTVSNDSFFNFFAPPEVPESGDLDDDAEAILAADFEIGHFLRERIIPRSVLYFTGEAIEDDDDDYDEEGEEADEEGEEEGDEENDPDYDPKKDQNPAECKQQ |  |  |  |  | binds | binds |
| His6-tagged human Nap2 (natural protein) MADHSFSDGVPSDSVEAAKNASNTEKLTDQVMQNPRVLAALQERLDNVPHTPSSYIETLPKAVKRRINALKQLQVRCAHIEAKFYEEVHDLERKYAALYQPLFDKRREFITGDVEPTDAESEWHSENEEEEKLAGDMKSKVVVTEKAAATAEEPDPKGIPEFWFTIFRNVDMLSELVQEYDEPILKHLQDIKVKFSDPGQPMSFVLEFHFEPNDYFTNSVLTKTYKMKSEPDKADPFSFEGPEIVDCDGCTIDWKKGKNVTVKTIKKKQKHKGRGTVRTITKQVPNESFFNFFNPLKASGDGESLDEDSEFTLASDFEIGHFFRERIVPRAVLYFTGEAIEDDDNFEEGEEGEEEELEGDEEGEDEDDAEINPKV |  |  |  |  | binds | binds |
